# Paper PMC10200994
# B1: STAT5A (unphosphorylated, wild-type), fluorophore fusion [not stated] / STAT5A (unphosphorylated, wild-type), fluorophore fusion [not stated] (parent)
# chain 1: MAGWIQAQQLQGDALRQMQVLYGQHFPIEVRHYLAQWIESQPWDAIDLDNPQDRAQATQLLEGLVQELQKKAEHQVGEDGFLLKIKLGHYATQLQKTYDRCPLELVRCIRHILYNEQRLVREANNCSSPAGILVDAMSQKHLQINQTFEELRLVTQDTENELKKLQQTQEYFIIQYQESLRIQAQFAQLAQLSPQERLSRETALQQKQVSLEAWLQREAQTLQQYRVELAEKHQKTLQLLRKQQTIILDDELIQWKRRQQLAGNGGPPEGSLDVLQSWCEKLAEIIWQNRQQIRRAEHLCQQLPIPGPVEEMLAEVNATITDIISALVTSTFIIEKQPPQVLKTQTKFAATVRLLVGGKLNVHMNPPQVKATIISEQQAKSLLKNENTRNECSGEILNNCCVMEYHQATGTLSAHFRNMSLKRIKRADRRGAESVTEEKFTVLFESQFSVGSNELVFQVKTLSLPVVVIVHGSQDHNATATVLWDNAFAEPGRVPFAVPDKVLWPQLCEALNMKFKAEVQSNRGLTKENLVFLAQKLFNNSSSHLEDYSGLSVSWSQFNRENLPGWNYTFWQWFDGVMEVLKKHHKPHWNDGAILGFVNKQQAHDLLINKPDGTFLLRFSDSEIGGITIAWKFDSPERNLWNLKPFTTRDFSIRSLADRLGDLSYLIYVFPDRPKDEVFSKYYTPVLAKAVDGYVKPQIKQVVPEFVNASADAGGSSATYMDQAPSPAVCPQAPYNMYPQNPDHVLDQDGEFDLDETMDVARHVEELLRRPMDSLDSRLSPPAGLFTSARGSLS
# chain 2: B1 chain 1
# B2: STAT4 (unphosphorylated, wild-type), fluorophore fusion [not stated] / STAT4 (unphosphorylated, wild-type), fluorophore fusion [not stated] (parent)
# chain 1: MSQWNQVQQLEIKFLEQVDQFYDDNFPMEIRHLLAQWIENQDWEAASNNETMATILLQNLLIQLDEQLGRVSKEKNLLLIHNLKRIRKVLQGKFHGNPMHVAVVISNCLREERRILAAANMPVQGPLEKSLQSSSVSERQRNVEHKVAAIKNSVQMTEQDTKYLEDLQDEFDYRYKTIQTMDQSDKNSAMVNQEVLTLQEMLNSLDFKRKEALSKMTQIIHETDLLMNTMLIEELQDWKRRQQIACIGGPLHNGLDQLQNCFTLLAESLFQLRRQLEKLEEQSTKMTYEGDPIPMQRTHMLERVTFLIYNLFKNSFVVERQPCMPTHPQRPLVLKTLIQFTVKLRLLIKLPELNYQVKVKASIDKNVSTLSNRRFVLCGTNVKAMSIEESSNGSLSVEFRHLQPKEMKSSAGGKGNEGCHMVTEELHSITFETQICLYGLTIDLETSSLPVVMISNVSQLPNAWASIIWYNVSTNDSQNLVFFNNPPPATLSQLLEVMSWQFSSYVGRGLNSDQLHMLAEKLTVQSSYSDGHLTWAKFCKEHLPGKSFTFWTWLEAILDLIKKHILPLWIDGYVMGFVSKEKERLLLKDKMPGTFLLRFSESHLGGITFTWVDHSESGEVRFHSVEPYNKGRLSALPFADILRDYKVIMAENIPENPLKYLYPDIPKDKAFGKHYSSQPCEVSRPTERGDKGYVPSVFIPISTIRSDSTEPHSPSDLLPMSPSVYAVLRENLSPTTIETAMKSPYSAE
# chain 2: B2 chain 1
# B3: STAT1 (unphosphorylated, wild-type), fluorophore fusion [not stated] / STAT1 (unphosphorylated, wild-type), fluorophore fusion [not stated] (parent)
# chain 1: MSQWYELQQLDSKFLEQVHQLYDDSFPMEIRQYLAQWLEKQDWEHAANDVSFATIRFHDLLSQLDDQYSRFSLENNFLLQHNIRKSKRNLQDNFQEDPIQMSMIIYSCLKEERKILENAQRFNQAQSGNIQSTVMLDKQKELDSKVRNVKDKVMCIEHEIKSLEDLQDEYDFKCKTLQNREHETNGVAKSDQKQEQLLLKKMYLMLDNKRKEVVHKIIELLNVTELTQNALINDELVEWKRRQQSACIGGPPNACLDQLQNWFTIVAESLQQVRQQLKKLEELEQKYTYEHDPITKNKQVLWDRTFSLFQQLIQSSFVVERQPCMPTHPQRPLVLKTGVQFTVKLRLLVKLQELNYNLKVKVLFDKDVNERNTVKGFRKFNILGTHTKVMNMEESTNGSLAAEFRHLQLKEQKNAGTRTNEGPLIVTEELHSLSFETQLCQPGLVIDLETTSLPVVVISNVSQLPSGWASILWYNMLVAEPRNLSFFLTPPCARWAQLSEVLSWQFSSVTKRGLNVDQLNMLGEKLLGPNASPDGLIPWTRFCKENINDKNFPFWLWIESILELIKKHLLPLWNDGCIMGFISKERERALLKDQQPGTFLLRFSESSREGAITFTWVERSQNGGEPDFHAVEPYTKKELSAVTFPDIIRNYKVMAAENIPENPLKYLYPNIDKDHAFGKYYSRPKEAPEPMELDGPKGTGYIKTELISVSEVHPSRLQTTDNLLPMSPEEFDEVSRIVGSVEFDSMMNTV
# chain 2: B3 chain 1
# B4: STAT5B (unphosphorylated, wild-type), fluorophore fusion [not stated] / STAT5B (unphosphorylated, wild-type), fluorophore fusion [not stated] (parent)
# chain 1: MAVWIQAQQLQGEALHQMQALYGQHFPIEVRHYLSQWIESQAWDSVDLDNPQENIKATQLLEGLVQELQKKAEHQVGEDGFLLKIKLGHYATQLQNTYDRCPMELVRCIRHILYNEQRLVREANNGSSPAGSLADAMSQKHLQINQTFEELRLVTQDTENELKKLQQTQEYFIIQYQESLRIQAQFGPLAQLSPQERLSRETALQQKQVSLEAWLQREAQTLQQYRVELAEKHQKTLQLLRKQQTIILDDELIQWKRRQQLAGNGGPPEGSLDVLQSWCEKLAEIIWQNRQQIRRAEHLCQQLPIPGPVEEMLAEVNATITDIISALVTSTFIIEKQPPQVLKTQTKFAATVRLLVGGKLNVHMNPPQVKATIISEQQAKSLLKNENTRNDYSGEILNNCCVMEYHQATGTLSAHFRNMSLKRIKRSDRRGAESVTEEKFTILFESQFSVGGNELVFQVKTLSLPVVVIVHGSQDNNATATVLWDNAFAEPGRVPFAVPDKVLWPQLCEALNMKFKAEVQSNRGLTKENLVFLAQKLFNNSSSHLEDYSGLSVSWSQFNRENLPGRNYTFWQWFDGVMEVLKKHLKPHWNDGAILGFVNKQQAHDLLINKPDGTFLLRFSDSEIGGITIAWKFDSQERMFWNLMPFTTRDFSIRSLADRLGDLNYLIYVFPDRPKDEVYSKYYTPVPCESATAKAVDGYVKPQIKQVVPEFVNASADAGGGSATYMDQAPSPAVCPQAHYNMYPQNPDSVLDTDGDFDLEDTMDVARRVEELLGRPMDSQWIPHAQS
# chain 2: B4 chain 1
# Variants of: B1
# Experiment: co-localization assay (quantitative fluorescence microscopy in HeLa cells)
# Conditions: with STAT5A (unphosphorylated, wild-type), bait S5A-NES, test S5A-L82A, 19 cells (parent 13 cells), parent: 0.97
row,Variant,screen value
1,chain 1 L82A,0.54

# Variants of: B2
# Experiment: as above
# Conditions: with STAT4 (unphosphorylated, wild-type), bait S4-NES, test S4-L78S, 19 cells (parent 14 cells), parent: 0.95
row,Variant,screen value
1,chain 1 L78S,0.68

# Variants of: B3
# Experiment: as above
# Conditions: with STAT1 (unphosphorylated, wild-type), bait S1-NLS, test S1-F77A, 20 cells (parent 12 cells), parent: 0.98
row,Variant,screen value
1,chain 1 F77A,0.64

# Variants of: B4
# Experiment: as above
# Conditions: with STAT5B (unphosphorylated, wild-type), bait S5B-NES, test S5B-L82A, 32 cells (parent 10 cells), parent: 0.97
row,Variant,screen value
1,chain 1 L82A,0.63
